For this series, the target named is T1, His-CRP (cAMP receptor protein) (Klebsiella pneumoniae NTUH-K2044) (UniProt A0ACD7U7W2).
T1 sequence: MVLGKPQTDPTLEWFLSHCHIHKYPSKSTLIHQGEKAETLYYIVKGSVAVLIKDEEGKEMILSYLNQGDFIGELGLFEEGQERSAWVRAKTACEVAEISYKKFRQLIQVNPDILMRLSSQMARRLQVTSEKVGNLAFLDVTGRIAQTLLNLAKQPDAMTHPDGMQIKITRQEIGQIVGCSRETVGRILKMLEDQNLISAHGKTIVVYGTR
Kind of series: DNase I footprinting. The settings on record: 5x binding buffer ([…], room temperature, 20 min ([…]) or 30 min ([…].

Binding data for one sequence are collected here from PMC5521740.

Turning to “ATACCGGCAGCTGCGAGTAATTTTACGTTTTTCATGGTGTTTGTCCTTTTAACTTTTATGGTGGAAAGCATGTTTGCTTTCGATGGACTTATAATAAGTCTGCTAACTATAACGCGCGTGGCAAAAAGTGCGATTTAGATCACATTTTTATGGCGGTTTGATGGCGTAAACATGATCGTTTATCTATTTTTTAATTTAAAAACAATCAATTAATGATTTGCTTCTGAAAGGGGGTATCACAT (double strand) [KP1_4563 promoter footprinting fragment]”, the binding result was “binds”.
